Test [1] addresses T1, human GPRC5D (human, UniProt Q9NZD1 1-345). The test can be described thus: cell-based or functional assay.
The target of test [2] is T1, human GPRC5D. Kind of test: cell ELISA, CHO hu GPRC5D (EC/IC50 rel). The protocol:
Stable transfected CHO clones expressing either human GPRCSD or cynomolgus GPRCSD or murine GPRCSD or human GPRCSA were used to analyze the binding of potential lead candidate antibodies as IgGs. In detail, 10⁴ cells (viability≥98%) were seeded into 384 well-microtiter plates (BD Poly D-Lysin, #356662, volume: 25 μl/well) using fresh culture medium. After overnight incubation at 37° C., 25 μl/well dilutions of antibodies were added (15×1:3 dilutions in 1×PBS, assay conc. starts at 30 μg/ml) to the cells for 2 hours at 4° C. After one washing step using 90 μl/well PBST (10×PBS, Roche, #11666789001+0.1% Tween 20), cells were subsequently fixed by the addition of 50 μl/well 0.05% glutaraldehyde (Sigma Cat. No: G5882 in 1×PBS) for 10 min at room temperature (RT). After three additional washing steps using 90 μl/well PBST, secondary antibodies were added for detection: for human antibodies goat anti-human Ig a chain antibody HRP conjugate (Millipore #AP502P) diluted 1:2000 in blocking buffer (1×PBS (Roche #11666789001)+2% BSA (Bovine Serum Albumin Fraction V, fatty acid free, Roche, #10735086001)+0.05% Tween 20) was used (25 μl/well). […] After incubation for 1 h at RT and three additional washing steps using 90 μl/well PBST, 25 μl/well TMB substrate was added (Roche order no. 11835033001) for 10 min and color development to final ODs was determined by measurement at 370 nm/492 nm.
For the characterization of the humanization variants of the VH and VL domains of the GPRC5D binders the ELISA protocol as described above was used (see Example 7). The data are summarized in the table 10 for the humanization variants of 5E11 and in table 11 for the humanization variants of 5F11.
(In an ELISA, binding on a coated surface is turned into a signal by an enzyme label.)

Values joined by “and” are separate entries in the source; they are usually repeats but may differ in a detail not shown here. Equal entries are not always repeated.

T1 sequence (Q9NZD1 whole entry): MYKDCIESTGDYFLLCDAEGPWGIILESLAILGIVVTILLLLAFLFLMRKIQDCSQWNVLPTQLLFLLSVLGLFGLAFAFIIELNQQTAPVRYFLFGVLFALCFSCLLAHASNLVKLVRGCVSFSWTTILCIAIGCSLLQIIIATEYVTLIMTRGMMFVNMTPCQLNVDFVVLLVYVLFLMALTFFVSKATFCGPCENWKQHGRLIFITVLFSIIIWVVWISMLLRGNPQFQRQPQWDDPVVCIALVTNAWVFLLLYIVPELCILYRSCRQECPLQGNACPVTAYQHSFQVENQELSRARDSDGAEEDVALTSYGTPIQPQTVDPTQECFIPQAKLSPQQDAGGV

B1: P1AE5739 (antibody, V domains shown)
VH: EVQLVESGGGVVQPGRSLRLSCAASGFSFSNYGMAWVRQAPGKGLEWVASISTGGGNTYYRDSVKGRFTISRDNAKNTLYLQMNSLRAEDTAVYYCTRHDRGGLYWGQGTMVTVSS
VL: DIVMTQSPLSLPVTPGEPASISCRSSKSLLHSNGITYVYWYLQKPGQSPQVLIYRMSNLASGVPDRFSGSGSGTDFTLKISRVEAEDVGVYHCGQLLENPYTFGQGTKLEIK
notes: Humanized 5F11 IgG; PGLALA Fc implied by the CAR-J assay; also called 5F11_VH1b + 5F11_VL1a
For the molecule B1, in the test with human GPRC5D [1], the “CAR-J2 EC50 [ng/mL] (PGLALA-CAR-J activation, L363 target cells)” value (shortened to “CAR-J2 EC50 [ng/mL]”) stood at 23.5 ng/mL. For the same molecule, in the test with human GPRC5D [2], the EC50 – broadly, the concentration at which the effect is half-maximal – was 0.004 µg/mL and 0.03 nM.

B2: P1AE5746 (antibody, V domains shown)
VH: QVQLVESGGGVVQPGRSLRLSCAASGFSFSNYGMAWVRQAPGKGLEWVASISTGGGNTYYADSVKGRFTISRDNSKNTLYLQMNSLRAEDTAVYYCTRHDRGGLYWGQGTMVTVSS
VL: DIVMTQSPLSLPVTPGEPASISCRSSKSLLHSNGITYVYWYLQKPGQSPQLLIYRMSNRASGVPDRFSGSGSGTDFTLKISRVEAEDVGVYHCGQLLENPYTFGQGTKLEIK
notes: Humanized 5F11 IgG; PGLALA Fc implied by the CAR-J assay; also called 5F11_VH1c + 5F11_VL2a
B2: the “CAR-J2 EC50 [ng/mL]” value in the test with human GPRC5D [1] is 514 ng/mL. Further, the 50% effective concentration (EC50) with human GPRC5D [2] was 0.0107 µg/mL and 0.07 nM.

B3: P1AE5757 (antibody, V domains shown)
VH: EVQLVESGGGLVQPGGSLRLSCAASGFSFSNYGMAWVRQAPGKGLEWVASISTGGGNTYYRDSVKGRFTISRDNAKNTLYLQMNSLRAEDTAVYYCTRHDRGGLYWGQGTMVTVSS
VL: DIVMTQSPLSLPVTPGEPASISCRSSKSLLHSNGITYVYWYLQKPGQSPQLLIYRMSNRASGVPDRFSGSGSGTDFTLKISRVEAEDVGVYHCGQLLENPYTFGQGTKLEIK
notes: Humanized 5F11 IgG; PGLALA Fc implied by the CAR-J assay; also called 5F11_VH2b + 5F11_VL2a
On to B3, for which, in the test with human GPRC5D [1], the “CAR-J2 EC50 [ng/mL]” value worked out at 145 ng/mL. In the test with human GPRC5D [2], the EC50 is 0.0029 µg/mL and 0.02 nM.

B4: P1AE5734 (antibody, V domains shown)
VH: QVQLVESGGGVVQPGRSLRLSCAASGFSFSNYGMAWVRQAPGKGLEWVASISTGGGNTYYRDSVKGRFTISRDNSKNTLYLQMNSLRAEDTAVYYCTRHDRGGLYWGQGTMVTVSS
VL: DIVMTQSPLSLPVTPGEPASISCRSSKSLLHSNGITYVYWYLQKPGQSPQVLIYRMSNLASGVPDRFSGSGSGTDFTLKISRVEAEDVGVYHCGQLLENPYTFGQGTKLEIK
notes: Humanized 5F11 IgG; PGLALA Fc implied by the CAR-J assay; also called 5F11_VH1a + 5F11_VL1a
On to B4, for which, in the test with human GPRC5D [1], the “CAR-J2 EC50 [ng/mL]” value worked out at 41.5 ng/mL. The EC50 in the test with human GPRC5D [2] was 0.0055 µg/mL and 0.04 nM.

B5: P1AE5752 (antibody, V domains shown)
VH: EVQLVESGGGVVQPGRSLRLSCAASGFSFSNYGMAWVRQAPGKGLEWVASISTGGGNTYYADSVKGRFTISRDNAKNTLYLQMNSLRAEDTAVYYCTRHDRGGLYWGQGTMVTVSS
VL: DIVMTQSPLSLPVTPGEPASISCRSSKSLLHSNGITYVYWYLQKPGQSPQLLIYRMSNRASGVPDRFSGSGSGTDFTLKISRVEAEDVGVYHCGQLLENPYTFGQGTKLEIK
notes: Humanized 5F11 IgG; PGLALA Fc implied by the CAR-J assay; also called 5F11_VH1d + 5F11_VL2a
B5: in the test with human GPRC5D [1], the “CAR-J2 EC50 [ng/mL]” value worked out at 509 ng/mL. For the same molecule, the EC50 with human GPRC5D [2] was 0.0062 µg/mL and 0.04 nM.

B6: P1AE5756 (antibody, V domains shown)
VH: EVQLVESGGGLVQPGGSLRLSCAASGFSFSNYGMAWVRQAPGKGLEWVASISTGGGNTYYRDSVKGRFTISRDNAKNTLYLQMNSLRAEDTAVYYCTRHDRGGLYWGQGTMVTVSS
VL: DIVMTQSPLSLPVTPGEPASISCRSSKSLLHSNGITYVYWYLQKPGKSPQVLIYRMSNLASGVPDRFSGSGSGTDFTLKISRVEAEDVGVYHCGQLLENPYTFGQGTKLEIK
notes: Humanized 5F11 IgG; PGLALA Fc implied by the CAR-J assay; also called 5F11_VH2b + 5F11_VL1b
On to B6, for which, in the test with human GPRC5D [1], the “CAR-J2 EC50 [ng/mL]” value came out at 170 ng/mL. Moreover, in the test with human GPRC5D [2], the EC50 was 0.0078 µg/mL and 0.05 nM.

B7: P1AE5736 (antibody, V domains shown)
VH: QVQLVESGGGVVQPGRSLRLSCAASGFSFSNYGMAWVRQAPGKGLEWVASISTGGGNTYYRDSVKGRFTISRDNSKNTLYLQMNSLRAEDTAVYYCTRHDRGGLYWGQGTMVTVSS
VL: DIVMTQSPLSLPVTPGEPASISCRSSKSLLHSNGITYVYWYLQKPGQSPQLLIYRMSNRASGVPDRFSGSGSGTDFTLKISRVEAEDVGVYHCGQLLENPYTFGQGTKLEIK
notes: Humanized 5F11 IgG; PGLALA Fc implied by the CAR-J assay; also called 5F11_VH1a + 5F11_VL2a
As to B7, the “CAR-J2 EC50 [ng/mL]” value in the test with human GPRC5D [1] worked out at 1.38 ng/mL. For the same molecule, in the test with human GPRC5D [2], the EC50 is 0.0037 µg/mL and 0.02 nM.

B8: P1AE5740 (antibody, V domains shown)
VH: EVQLVESGGGVVQPGRSLRLSCAASGFSFSNYGMAWVRQAPGKGLEWVASISTGGGNTYYRDSVKGRFTISRDNAKNTLYLQMNSLRAEDTAVYYCTRHDRGGLYWGQGTMVTVSS
VL: DIVMTQSPLSLPVTPGEPASISCRSSKSLLHSNGITYVYWYLQKPGKSPQVLIYRMSNLASGVPDRFSGSGSGTDFTLKISRVEAEDVGVYHCGQLLENPYTFGQGTKLEIK
notes: Humanized 5F11 IgG; PGLALA Fc implied by the CAR-J assay; also called 5F11_VH1b + 5F11_VL1b
As to B8, the “CAR-J2 EC50 [ng/mL]” value with human GPRC5D [1] was determined as 8.96 ng/mL. In the test with human GPRC5D [2], the concentration giving a half-maximal response (EC50) was 0.0063 µg/mL and 0.04 nM.

B9: P1AE5750 (antibody, V domains shown)
VH: EVQLVESGGGVVQPGRSLRLSCAASGFSFSNYGMAWVRQAPGKGLEWVASISTGGGNTYYADSVKGRFTISRDNAKNTLYLQMNSLRAEDTAVYYCTRHDRGGLYWGQGTMVTVSS
VL: DIVMTQSPLSLPVTPGEPASISCRSSKSLLHSNGITYVYWYLQKPGQSPQVLIYRMSNLASGVPDRFSGSGSGTDFTLKISRVEAEDVGVYHCGQLLENPYTFGQGTKLEIK
notes: Humanized 5F11 IgG; PGLALA Fc implied by the CAR-J assay; also called 5F11_VH1d + 5F11_VL1a
For B9, the “CAR-J2 EC50 [ng/mL]” value in the test with human GPRC5D [1] worked out at 20.6 ng/mL. In addition, the EC50 with human GPRC5D [2] is 0.0094 µg/mL and 0.06 nM.

B10: P1AE5760 (antibody, V domains shown)
VH: EVQLVESGGGLVQPGGSLRLSCAASGFSFSNYGMAWVRQAPGKGLEWVASISTGGGNTYYADSVKGRFTISRDNAKNTLYLQMNSLRAEDTAVYYCTRHDRGGLYWGQGTMVTVSS
VL: DIVMTQSPLSLPVTPGEPASISCRSSKSLLHSNGITYVYWYLQKPGQSPQVLIYRMSNLASGVPDRFSGSGSGTDFTLKISRVEAEDVGVYHCGQLLENPYTFGQGTKLEIK
notes: Humanized 5F11 IgG; PGLALA Fc implied by the CAR-J assay; also called 5F11_VH2d + 5F11_VL1a
With B10, in the test with human GPRC5D [1], the “CAR-J2 EC50 [ng/mL]” value was 190 ng/mL. Besides, the 50% effective concentration (EC50) in the test with human GPRC5D [2] is 0.004 µg/mL and 0.03 nM.

B11: P1AE5735 (antibody, V domains shown)
VH: QVQLVESGGGVVQPGRSLRLSCAASGFSFSNYGMAWVRQAPGKGLEWVASISTGGGNTYYRDSVKGRFTISRDNSKNTLYLQMNSLRAEDTAVYYCTRHDRGGLYWGQGTMVTVSS
VL: DIVMTQSPLSLPVTPGEPASISCRSSKSLLHSNGITYVYWYLQKPGKSPQVLIYRMSNLASGVPDRFSGSGSGTDFTLKISRVEAEDVGVYHCGQLLENPYTFGQGTKLEIK
notes: Humanized 5F11 IgG; PGLALA Fc implied by the CAR-J assay; also called 5F11_VH1a + 5F11_VL1b
For B11, the “CAR-J2 EC50 [ng/mL]” value in the test with human GPRC5D [1] is 82.1 ng/mL. Moreover, the concentration giving a half-maximal response (EC50) with human GPRC5D [2] was 0.0066 µg/mL and 0.04 nM.

B12: P1AE5751 (antibody, V domains shown)
VH: EVQLVESGGGVVQPGRSLRLSCAASGFSFSNYGMAWVRQAPGKGLEWVASISTGGGNTYYADSVKGRFTISRDNAKNTLYLQMNSLRAEDTAVYYCTRHDRGGLYWGQGTMVTVSS
VL: DIVMTQSPLSLPVTPGEPASISCRSSKSLLHSNGITYVYWYLQKPGKSPQVLIYRMSNLASGVPDRFSGSGSGTDFTLKISRVEAEDVGVYHCGQLLENPYTFGQGTKLEIK
notes: Humanized 5F11 IgG; PGLALA Fc implied by the CAR-J assay; also called 5F11_VH1d + 5F11_VL1b
As to B12, the “CAR-J2 EC50 [ng/mL]” value with human GPRC5D [1] was determined as 6.44 ng/mL. The EC50 in the test with human GPRC5D [2] is 0.0124 µg/mL and 0.08 nM.

B13: P1AE5755 (antibody, V domains shown)
VH: EVQLVESGGGLVQPGGSLRLSCAASGFSFSNYGMAWVRQAPGKGLEWVASISTGGGNTYYRDSVKGRFTISRDNAKNTLYLQMNSLRAEDTAVYYCTRHDRGGLYWGQGTMVTVSS
VL: DIVMTQSPLSLPVTPGEPASISCRSSKSLLHSNGITYVYWYLQKPGQSPQVLIYRMSNLASGVPDRFSGSGSGTDFTLKISRVEAEDVGVYHCGQLLENPYTFGQGTKLEIK
notes: Humanized 5F11 IgG; PGLALA Fc implied by the CAR-J assay; also called 5F11_VH2b + 5F11_VL1a
Consider B13, for which, in the test with human GPRC5D [1], the “CAR-J2 EC50 [ng/mL]” value was 152 ng/mL. Moreover, the 50% effective concentration (EC50) in the test with human GPRC5D [2] is 0.0078 µg/mL and 0.05 nM.

For the origin of these results see US20220259318A1 (Hoffmann-La Roche, published 2022).
